Two substances from patent publication US20190284279A1 can be followed below.

Assay [1] addresses human CD19 antigen on the surface of B lymphoma cells (Raji, Daudi, IM-9, Namalwa) (human) (UniProt P15391). Description: cell-based or functional assay.
Assay [2] addresses human CD3 (CD3ε molecule) on the surface of Jurkat T cells (human) (UniProt P07766). Description: flow cytometry on Jurkat cells.
In assay [3] the target is human CD19 antigen on the surface of B lymphoma cells (Raji, Daudi, IM-9, Namalwa) (human) (UniProt P15391). Description: flow cytometry on Raji cells; control antibody at 5 µg/ml. (In general: A flow cytometer gives signals particle by particle.)
Assay [4] shares this target. Description: flow cytometry on Raji cells; control antibody at 15 µg/ml.
For assay [5] the target is unchanged. Description: flow cytometry on Raji cells; control antibody at 1.667 µg/ml.
For assay [6] the target is unchanged. Description: flow cytometry on Raji cells; control antibody at 0.185 µg/ml.
Assay [7] deals with human CD3 (CD3ε molecule) on the surface of Jurkat T cells (human) (UniProt P07766). Description: cell-based or functional assay.
Assay [8] deals with human CD19 antigen on the surface of B lymphoma cells (Raji, Daudi, IM-9, Namalwa) (human) (UniProt P15391). Description: flow cytometry on Raji cells; control antibody at 0.556 µg/ml.

In the case of “BLI-193 (tandem single chain antibody structure, blinatumomab) (bispecific antibody)”, in assay [1], the ED50 of killing of Daudi cells by human PBMC (Fluo 3-AM release) amounted to 2.57 ng/mL, the ED50 of killing of Namalwa cells by human PBMC (Fluo 3-AM release) was 0.107 ng/mL and the ED50 of killing of Raji cells by human PBMC (Fluo 3-AM release) worked out at 0.0868 ng/mL.
By EC50 is commonly meant the concentration that produces a half-maximal response. Take “OKT3 monoclonal antibody (mouse anti-human CD3 monoclonal antibody)”: in assay [2], the concentration giving a half-maximal response (EC50) was determined as 6.09 nM. In addition, the average fluorescence value in assay [3] was 3460; in assay [4], 3710; in assay [5], 3570; in assay [6], 3860; in assay [8], 3390. The substance also came in with an ED50 of CD69 expression (Mean FL2-A) on Jurkat E6-1 cells co-cultured with Raji cells (10:1) in assay [7] of 1280 ng/mL.
